Reference: publication PMC11652653, “SON-1010: an albumin-binding IL-12 fusion protein that improves cytokine half-life, targets tumors, and enhances therapeutic efficacy” (Frontiers in Immunology, 2024)

Target: T1, human serum albumin (human, UniProt P02768 25-609)
T1 construct: human serum albumin (HSA); also called HSA; rHSA
Assay: SPR; HSA bound to the chip, SON-1010 added, then SPARC (ternary complex); pH 6.0
Conditions: both partners purified

Kd: 10 nM
B1: secreted protein acidic and rich in cysteine (natural protein, UniProt P09486 18-303, looked up)
chain: APQQEALPDETEVVEETVAEVTEVSVGANPVQVEVGEFDDGAEETEEEVVAENPCQNHHCKHGKVCELDENNTPMCVCQDPTSCPAPIGEFEKVCSNDNKTFDSSCHFFATKCTLEGTKKGHKLHLDYIGPCKYIPPCLDSELTEFPLRMRDWLKNVLVTLYERDEDNNLLTEKQKLRVKKIHENEKRLEAGDHPVELLARDFEKNYNMYIFPVHWQFGQLDQHPIDGYLSHTELAPLRAPLIPMEHCTTRFFETCDLDNDKYIALDEWAGCFGIKQKDIDKDLVI
notes: SPARC (secreted protein acidic and rich in cysteine); also called SPARC
